In patent US20100286027A1, “ANTI-BACTERIAL COMPOSITIONS” (priority 2008, published 2010):

Assays:
[1] = tested on: Bacteroides fragilis NB85001; assay: MIC against anaerobic bacteria; assay type: cell-based
[2] = tested on: Fusobacterium nucleatum NB86006; assay: MIC against anaerobic bacteria; assay type: cell-based
[3] = tested on: Prevotella intermedia NB88001; assay: MIC against anaerobic bacteria; assay type: cell-based
[4] = tested on: Eubacterium lentum NB94001; assay: MIC against anaerobic bacteria; assay type: cell-based
[5] = tested on: Clostridium perfringens NB95001; assay type: cell-based; settings: anaerobic
[6] = tested on: Clostridium difficile NB95002; assay: MIC against anaerobic bacteria; assay type: cell-based
[7] = tested on: Clostridium ramosum NB95010; assay: MIC against anaerobic bacteria; assay type: cell-based
[8] = tested on: Peptostreptococcus anaerobius NB97001; assay: MIC against anaerobic bacteria; assay type: cell-based
E. coli NB27004 = assay: MIC against aerobic gram negative bacteria; assay type: cell-based, Escherichia coli
[9] = tested on: E. coli NB27005* (TolC efflux pump mutant); assay: MIC against aerobic gram negative bacteria, efflux pump mutant; assay type: cell-based, Escherichia coli; settings: aerobic gram negative; E. coli NB27005*, TolC efflux pump mutant strain
P. aeruginosa NB52019 = assay: MIC against aerobic gram negative bacteria; assay type: cell-based, Pseudomonas aeruginosa
[10] = tested on: P. aeruginosa NB52020* (mexAB/oprM efflux pump mutant); assay: MIC against aerobic gram negative bacteria, efflux pump mutant; assay type: cell-based, Pseudomonas aeruginosa; settings: aerobic gram negative; P. aeruginosa NB52020*, mexAB/oprM efflux pump mutant strain
[11] = tested on: H. influenzae NB65027-CDS0021* (TolC efflux pump mutant); assay: as above; assay type: cell-based, Haemophilus influenzae; settings: aerobic gram negative; H. influenzae NB65027-CDS0021*, TolC efflux pump mutant strain
[12] = tested on: gram-positive and gram-negative anaerobic bacteria; assay: MIC against panel of anaerobic bacteria, comparison with ciprofloxacin; assay type: cell-based; settings: against all the anaerobic bacteria tested; molecular weights ~30000 da and 386 da
S. aureus = assay: Bacterial growth inhibition (FIG. 14, FIG. 16); assay type: cell-based, Staphylococcus aureus
Procedure: Values shown are relative to controls incubated in the absence of LRR domains (100%).
This inhibition was unaffected by the co-administration of MDP, LPS, or PGN.

L. monocytogenes = assay: Bacterial growth inhibition (FIG. 15); assay type: cell-based, Listeria monocytogenes; settings: FIG. 15 Panel C
H. influenzae NB65027 = settings: aerobic gram negative
[13] = tested on: lawn of the indicated bacteria; assay: Agar diffusion assay; settings: FIG. 11 Panel D; 0.5 mg/ml in sterile PBS per well
[14] = tested on: Listeria monocytogenes (7644); assay: BacTiter-Glo bacterial ATP content viability assay; settings: Listeria monocytogenes (7644), gram +; +/− SD, n = 3; >100 = activity detected but <50% inhibition
Bacillus Subtilis (6633) = assay: BacTiter-Glo bacterial ATP content viability assay; settings: Bacillus Subtilis (6633), gram +; +/− SD, n = 3; >100 = activity detected but <50% inhibition
[15] = tested on: Enterococcus faecalis (29212); assay: BacTiter-Glo bacterial ATP content viability assay; settings: Enterococcus faecalis (29212), gram +; +/− SD, n = 3; >100 = activity detected but <50% inhibition
[16] = tested on: Staphylococcus aureus (29213); assay: BacTiter-Glo bacterial ATP content viability assay
[17] = tested on: Streptococcus pneumoniae (49619); assay: BacTiter-Glo bacterial ATP content viability assay; settings: gram +, +/− SD, n = 3, >100 = activity detected but <50% inhibition
Escherichia coli (8739) = assay: BacTiter-Glo bacterial ATP content viability assay; settings: gram −, +/− SD, n = 3, >100 = activity detected but <50% inhibition
Escherichia coli (25922) = assay: BacTiter-Glo bacterial ATP content viability assay; settings: gram −, +/− SD, n = 3, >100 = activity detected but <50% inhibition
[18] = tested on: Pseudomonas aeruginosa (27853); assay: BacTiter-Glo bacterial ATP content viability assay; settings: gram −, +/− SD, n = 3, >100 = activity detected but <50% inhibition
[19] = tested on: Salmonella choleraesuis (13076); assay: BacTiter-Glo bacterial ATP content viability assay; settings: gram −, +/− SD, n = 3, >100 = activity detected but <50% inhibition
[20] = tested on: Stenotrophomonas maltophilia (17666); assay: BacTiter-Glo bacterial ATP content viability assay; settings: gram −, +/− SD, n = 3, >100 = activity detected but <50% inhibition
E. coli = assay: Membrane polarity, DiBAC4 uptake by flow cytometry; settings: FIG. 11 Panel A; 5×10^5 bacteria in 100 μL, 2 hours at 37° C.
B. subtilis = assay: Membrane polarity, DiBAC4 uptake by flow cytometry; settings: FIG. 11 Panels B and C; 5×10^5 bacteria in 100 μL, 2 hours at 37° C.
[21] = tested on: Streptococcus pneumoniae (ATCC 49619); assay: Gentamycin protection assay in stable 293 cell lines; settings: 293 cells stably expressing the protein, infected with S. pneumoniae at MOI 10:1, versus control cells
porins (OmpC and OmpF) = assay: LRR domain affinity column and mass spectrometry protein identification; settings: guanidinium HCl extract of detergent-insoluble E. coli fraction; SDS-PAGE, mass spectrometry

B1: Nod2: purified recombinant LRR domain of Nod2 expressed in E. coli; human NOD2-LRR is SEQ ID NO: 3; ~30000 da (protein, listed as Homo sapiens)
chain: PAAPGEAKSVHAMPGFIWLIRSLYEMQEERLARKAARGLNVGHLKLTFCSVGPTECAALAFVLQHLRRPVALQLDYNSVGDIGVEQLLPCLGVCKALYLRDNNISDRGICKLIECALHCEQLQKLALFNNKLTDGCAHSMAKLLACRQNFLALRLGNNYITAAGAQVLAEGLRGNTSLQFLGFWGNRVGDEGAQALAEALGDHQSLRWLSLVGNNIGSVGAQALALMLAKNVMLEELCLEENHLQDEGVCSLAEGLKKNSSLKILKLSNNCITYLGAEALLQALERNDTILEVWLRGNTFSLEEVDKLGCRDTRLLL
notes: purified recombinant LRR domain of Nod2 expressed in E. coli; ~30000 da
- minimal inhibitory concentration (MIC) [1]: 4 microgram/ml
- minimal inhibitory concentration (MIC) [2]: 8 microgram/ml
- minimal inhibitory concentration (MIC) [3]: 4 microgram/ml
- minimal inhibitory concentration (MIC) [4]: 8 microgram/ml
- minimal inhibitory concentration (MIC) [5]: 4 microgram/ml
- minimal inhibitory concentration (MIC) [6]: 4 microgram/ml
- minimal inhibitory concentration (MIC) [7]: 4 microgram/ml
- minimal inhibitory concentration (MIC) [8]: 2 microgram/ml
- minimal inhibitory concentration (MIC) (E. coli NB27004): >128 microgram/ml
- minimal inhibitory concentration (MIC) [9]: 32 microgram/ml
- minimal inhibitory concentration (MIC) (P. aeruginosa NB52019): >128 microgram/ml
- minimal inhibitory concentration (MIC) [10]: >128 microgram/ml
- minimal inhibitory concentration (MIC) [11]: 4 microgram/ml
- potency relative to ciprofloxacin on a molar (mmoles/ml) basis [12]: 25-200 times
- growth of S. aureus (S. aureus; FIG. 14 Panel B, increasing concentrations, relative to controls (100%)): inhibits the growth
- effect of co-administration of MDP, LPS, or PGN on inhibition of S. aureus growth (S. aureus; FIG. 16): unaffected
- growth of S. aureus (S. aureus; FIG. 16): inhibited the growth
- L. monocytogenes growth (L. monocytogenes): inhibited
- minimal inhibitory concentration (MIC) (H. influenzae NB65027): >128 microgram/ml
- anti-bacterial activity by agar diffusion assay [13]: Anti-bacterial activity
- antibacterial activity by bacterial ATP content (IC50), [LRR domain] [14]: 13.7 +/− 13.0 microgram/ml
- antibacterial activity by bacterial ATP content (IC50), [LRR domain] (Bacillus Subtilis (6633)): 3.9 +/− 0.6 microgram/ml
- antibacterial activity by bacterial ATP content (IC50), [LRR domain] [15]: 6.8 +/− 1.6 microgram/ml
- antibacterial activity on S. aureus viability under bacterial stress ([16]; FIG. 13, ATP-coupled luminescent assay at 35° C., 37° C. and 39° C.): increased with bacterial stress
- antibacterial activity by bacterial ATP content (IC50), [LRR domain] ([16]; Staphylococcus aureus (29213), gram +, +/− SD, n = 3, >100 = activity detected but <50% inhibition): 6.0 +/− 4.0 microgram/ml
- antibacterial activity by bacterial ATP content (IC50), [LRR domain] [17]: 3.0 +/− 1.6 microgram/ml
- antibacterial activity by bacterial ATP content (IC50), [LRR domain] (Escherichia coli (8739)): >100 microgram/ml
- antibacterial activity by bacterial ATP content (IC50), [LRR domain] (Escherichia coli (25922)): >100 microgram/ml
- antibacterial activity by bacterial ATP content (IC50), [LRR domain] [18]: None detected
- antibacterial activity by bacterial ATP content (IC50), [LRR domain] [19]: None detected
- antibacterial activity by bacterial ATP content (IC50), [LRR domain] [20]: None detected
- membrane polarity of E. coli (depolarised bacteria taking up DiBAC4) (E. coli): influence
- membrane polarity of B. subtilis (depolarised bacteria taking up DiBAC4) (B. subtilis): influence
- number of gentamycin-protected intracellular bacteria [21]: drastically reduced
- porins (OmpC and OmpF) identified in eluate of LRR affinity column (porins (OmpC and OmpF)): specifically identified in the eluate
